Results from patent publication US20040185507A1.

How the values were obtained:
[1] = biological target: αvβ3 integrin on human cells (human) (UniProt P06756); test: cell-based or functional assay
[2] = biological target: αvβ3 integrin on human cells (human) (UniProt P06756); test: 125-I antibody saturation binding on M21 cells (n = 3)
[3] = biological target: αvβ3 integrin on human cells (human) (UniProt P06756); test: 125-I antibody saturation binding on M21 cells (n = 7)
[4] = biological target: αvβ3 integrin on human cells (human) (UniProt P06756); test: 125-I antibody saturation binding on A375S2 cells (n = 3)
[5] = biological target: αvβ3 integrin on human cells (human) (UniProt P06756); test: 125-I antibody saturation binding on A375S2 cells (n = 6)
[6] = biological target: human αVβ3 integrin, purified (human) (UniProt P06756); test: ELISA saturation binding on alphaVbeta3 coated plate, non-linear regression (n = 6)
Sequence of human αVβ3 integrin, purified (human) (P06756 31-1048, form in doubt, chain 1 of 2): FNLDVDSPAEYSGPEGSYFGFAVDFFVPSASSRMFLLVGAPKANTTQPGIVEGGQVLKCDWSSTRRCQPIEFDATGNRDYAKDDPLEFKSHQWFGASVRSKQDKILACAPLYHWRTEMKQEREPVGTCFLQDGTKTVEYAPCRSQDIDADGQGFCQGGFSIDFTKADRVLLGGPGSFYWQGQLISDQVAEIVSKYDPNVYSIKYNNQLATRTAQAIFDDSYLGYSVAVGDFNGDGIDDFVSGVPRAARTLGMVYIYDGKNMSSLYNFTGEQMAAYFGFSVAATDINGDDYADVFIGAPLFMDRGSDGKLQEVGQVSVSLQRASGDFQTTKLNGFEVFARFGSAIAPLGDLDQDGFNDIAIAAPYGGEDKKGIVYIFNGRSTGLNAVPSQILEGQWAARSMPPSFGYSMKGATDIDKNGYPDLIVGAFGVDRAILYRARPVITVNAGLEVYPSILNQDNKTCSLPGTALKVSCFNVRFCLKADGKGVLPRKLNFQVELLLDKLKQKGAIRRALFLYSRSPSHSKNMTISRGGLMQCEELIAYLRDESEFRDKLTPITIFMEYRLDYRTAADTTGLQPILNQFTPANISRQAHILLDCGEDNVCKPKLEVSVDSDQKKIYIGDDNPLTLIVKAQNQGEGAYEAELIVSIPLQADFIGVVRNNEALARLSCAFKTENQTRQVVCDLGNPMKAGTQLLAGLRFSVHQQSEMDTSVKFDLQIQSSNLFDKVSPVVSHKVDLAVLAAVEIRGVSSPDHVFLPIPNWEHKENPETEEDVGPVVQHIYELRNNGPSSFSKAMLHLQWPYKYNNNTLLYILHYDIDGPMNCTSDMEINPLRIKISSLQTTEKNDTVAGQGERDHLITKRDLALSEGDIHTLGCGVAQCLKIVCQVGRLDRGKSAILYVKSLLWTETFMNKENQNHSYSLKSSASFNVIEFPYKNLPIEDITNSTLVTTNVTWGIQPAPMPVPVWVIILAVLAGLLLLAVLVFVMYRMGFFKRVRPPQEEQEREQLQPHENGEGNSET
Sequence of human αVβ3 integrin, purified (human) (P05106 27-788, form in doubt, chain 2 of 2, further chain): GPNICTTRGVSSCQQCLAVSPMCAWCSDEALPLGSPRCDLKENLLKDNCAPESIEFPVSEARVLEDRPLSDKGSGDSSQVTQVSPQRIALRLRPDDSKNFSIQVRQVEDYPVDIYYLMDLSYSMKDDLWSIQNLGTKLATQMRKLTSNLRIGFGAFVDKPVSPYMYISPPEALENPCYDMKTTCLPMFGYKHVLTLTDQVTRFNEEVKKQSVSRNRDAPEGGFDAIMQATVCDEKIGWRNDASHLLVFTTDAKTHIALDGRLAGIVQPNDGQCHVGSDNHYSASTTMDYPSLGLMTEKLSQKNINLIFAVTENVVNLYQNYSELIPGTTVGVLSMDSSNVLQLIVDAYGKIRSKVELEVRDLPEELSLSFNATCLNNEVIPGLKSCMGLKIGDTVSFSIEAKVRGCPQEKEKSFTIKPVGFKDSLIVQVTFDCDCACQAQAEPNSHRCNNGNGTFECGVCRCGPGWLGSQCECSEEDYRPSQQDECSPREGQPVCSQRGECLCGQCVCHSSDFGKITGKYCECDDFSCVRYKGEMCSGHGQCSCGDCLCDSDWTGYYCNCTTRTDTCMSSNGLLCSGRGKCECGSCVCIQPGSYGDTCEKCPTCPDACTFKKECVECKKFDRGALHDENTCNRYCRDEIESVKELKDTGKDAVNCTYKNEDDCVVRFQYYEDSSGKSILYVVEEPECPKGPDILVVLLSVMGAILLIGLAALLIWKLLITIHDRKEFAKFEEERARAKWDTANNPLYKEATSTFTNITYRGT

[7] = biological target: human αVβ3 integrin, purified (human) (UniProt P06756); test: ELISA on αVβ3 coated plates

Sequence of αvβ3 integrin on human cells (human) (P06756 31-1048, chain 1 of 2): as the sequence (P06756 31-1048, form in doubt, chain 1 of 2) above
Sequence of αvβ3 integrin on human cells (human) (P05106 27-788, chain 2 of 2, further chain): as the sequence (P05106 27-788, form in doubt, chain 2 of 2, further chain) above

Binder | A375S.2 cell adhesion to fibrin, % of no-antibody control (10 µg/ml) [1] [%] | A375S.2 cell adhesion to fibrinogen, % of no-antibody control (10 µg/ml) [1] [%] | A375S.2 cell adhesion to fibronectin, % of no-antibody control (10 µg/ml) [1] [%] | A375S.2 cell adhesion to gelatin, % of no-antibody control (10 µg/ml) [1] [%] | A375S.2 cell adhesion to type I collagen, % of no-antibody control (10 µg/ml) [1] [%] | A375S.2 cell adhesion to vitronectin, % of no-antibody control (10 µg/ml) [1] [%] | HUVEC adhesion to fibrin, % of no-antibody control (10 µg/ml) [1] [%] | HUVEC adhesion to fibrinogen, % of no-antibody control (10 µg/ml) [1] [%] | HUVEC adhesion to fibronectin, % of no-antibody control (10 µg/ml) [1] [%] | HUVEC adhesion to gelatin, % of no-antibody control (10 µg/ml) [1] [%] | HUVEC adhesion to type I collagen, % of no-antibody control (10 µg/ml) [1] [%] | HUVEC adhesion to vitronectin, % of no-antibody control (10 µg/ml) [1] [%] | Kd [2] [nM] | Receptors per cell (receptors/cell) [3] | Kd [4] [nM] | Receptors per cell (receptors/cell) [5] | Kd [6] [nM] | EC50 [7] [µg/mL]
ReoPro (c7E3 Fab) (Fab, INN chains, looked up, V domains shown, Fab 125I label) VH: EVQLQQSGTVLARPGASVKMSCEASGYTFTNYWMHWVKQRPGQGLEWIGAIYPGNSDTSYIQKFKGKAKLTAVTSTTSVYMELSSLTNEDSAVYYCTLYDGYYVFAYWGQGTLVTVSA VL: EIVLTQSPVTLSVTPGDSVSLSCRASRDISNNLHWFQQTSHESPRLLIKYASQSMSGIPSRFSGSGSGTDFTLSINSVETEDFGMYFCQQTNSWPYTFGGGTKLEIK | 12.9 | 6.5 | 104 | 6 | 93.1 | 38.1 | 35.8 | 8.7 | 96.3 | 2.5 | 99.6 | 54.9 | 10 | 660000 | 22 | 370000 | 0.25 | –
c7E3 IgG (antibody, INN chains, looked up, V domains shown, IgG) VH: EVQLQQSGTVLARPGASVKMSCEASGYTFTNYWMHWVKQRPGQGLEWIGAIYPGNSDTSYIQKFKGKAKLTAVTSTTSVYMELSSLTNEDSAVYYCTLYDGYYVFAYWGQGTLVTVSA VL: EIVLTQSPVTLSVTPGDSVSLSCRASRDISNNLHWFQQTSHESPRLLIKYASQSMSGIPSRFSGSGSGTDFTLSINSVETEDFGMYFCQQTNSWPYTFGGGTKLEIK | – | – | – | – | – | – | – | – | – | – | – | – | – | – | – | – | – | 0.07
